Legend:
[1] = target: purified recombinant PD-1 fusion protein (Sino Biological Inc, Cat #: 10377-H08H) (human, UniProt Q15116 25-170); experiment: ELISA
PD-1 protein = PD-1 protein (UniProt Q15116 25-167); experiment: blocking ELISA (PD-1/PD-L1)
PD-1 protein, sequence (Q15116 25-167): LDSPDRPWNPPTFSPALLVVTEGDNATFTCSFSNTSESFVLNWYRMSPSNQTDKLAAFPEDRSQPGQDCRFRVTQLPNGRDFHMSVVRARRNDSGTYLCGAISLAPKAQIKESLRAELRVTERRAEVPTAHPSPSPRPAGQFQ

purified recombinant PD-1 fusion protein (Sino Biological Inc, Cat #: 10377-H08H), sequence (Q15116 25-170): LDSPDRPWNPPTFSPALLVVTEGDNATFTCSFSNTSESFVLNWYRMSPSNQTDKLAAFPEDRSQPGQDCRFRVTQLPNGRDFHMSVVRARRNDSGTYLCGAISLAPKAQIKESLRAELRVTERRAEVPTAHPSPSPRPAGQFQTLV

B1: BA08-1 (antibody, V domains shown)
VH: QVQLVQSGAEVKKPGASVKVSCKASGYTFTSYYMYWVRQAPGQGLEWMGGVNPSNGGTNFNEKFKSRVTITADKSTSTAYMELSSLRSEDTAVYYCARRDYRYDMGFDYWGQGTTVTVSS
VL: EIVLTQSPATLSLSPGERATISCRASKGVSTSGYSYLHWYQQKPGQAPRLLIYLASYLESGVPARFSGSGSGTDFTLTISSLEPEDFATYYCQHSRELPLTFGTGTKVEIK
An EC50 [1] of 0.0371 nM and an IC50 (PD-1 protein) of 0.288 nM were found for B1 in this work.
